Test results: PMC2576468, “The orthologue of the "acatalytic" mammalian ART4 in chicken is an arginine-specific mono-ADP-ribosyltransferase” (BMC Molecular Biology, 2008)

Substrate: NC(=O)c1ccc[n+]([C@@H]2O[C@H](COP(=O)([O-])OP(=O)(O)OC[C@H]3O[C@@H](n4cnc5c4ncn4ccnc54)[C@H](O)[C@@H]3O)[C@@H](O)[C@H]2O)c1
Assay: purified protein
Format: biochemical, Gallus gallus
Conditions: poly-L-arginine 1 mg/ml as acceptor, PBS pH 7.4, room temperature, glycosylated protein (no PNGase F)

B1: recombinant chicken ART4 (chART4) (Gallus gallus) (protein)
chain: SHLMMDMALHSFDDQYLGCREQMMEELERGDYFQKEIAANKNYSSLWKKAQEALLKSSVGLLREMHDSHATALMAYTMNSSLHSQLNWATSTAGRSPEQYRHNFSFKYFHFYLTTAIQIMKQWQSSKDNVRKRHCYRVHRGVKDLYIKATVGSIVRFGRFTSTSCLWNEAQKFGNETLFTVTTCLGAAMQGFSYYTSEKEVLIPPYEIFLVKNFFRTRRGNRLHLHSVGNYSKYHYQLLEASRIKNGGSTA
notes: N-glycosylated
- Km: 1.0 ± 0.18 µM
